Test results: article PMC5652298 (Nature structural & molecular biology, 2017)

How the values were obtained:
[1] = molecular target: wild-type Shaker K+ channel with N-type inactivation removed (UniProt P08510); experiment: […]
[2] = molecular target: 3/4V478W mutant Shaker concatemer channel; experiment: […]

| Molecule | Kd [1] [nM] | Kd [2] [nM] |
| --- | --- | --- |
| wild-type AgTx2 (from UniProt P46111 1-38) (peptide) | 2.5 |  |
| GVPINVSCTGSPQCIKPCKDAGMRFGKCMNRKCHCTPK [wild-type AgTx2] |  | 9.2 |
